Laboratory results reported in patent US20230183322A1 (PEKING UNIVERSITY, published 2023).
Positions count from the first letter of the chain named.

B1: ABU-382 (antibody, V domains shown)
VH: EVQLVESGGGLIQPGGSLRLSCAASGITVSSNYMSWVRQAPGKGLEWVSVIYSGGSTFYSDSVKGRFTISRDNSKNTLYLQMNSLRAEDTAVYYCARERGGRFDYWGQGTLVTVSS
VL: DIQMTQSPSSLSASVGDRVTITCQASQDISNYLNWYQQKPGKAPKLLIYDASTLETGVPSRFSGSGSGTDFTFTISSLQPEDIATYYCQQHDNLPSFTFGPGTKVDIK
B2: ABU-340 (antibody, V domains shown)
VH: EVQLVESGGGLVQPGGSLRLSCAASGFTVSSNYMNWVRQAPGKGLEWVSVIYSGGSTYYADSVKGRFTLSRDNSKNTLYLQMNSLRAEDTAVYYCARGQYDILTGYQYGAFDIWGQGTMVTVSS
VL: QSALTQPASVSGSPGQSITISCTGTSSDVGTYNLVSWYQQHPGKAPKLMIYEVSKRPSGVSNRFSGSKSGNTASLTISGLQAEDEADYYCCTYAGSSTWVFGGGTKLTVL
B3: ABU-341 (antibody, V domains shown)
VH: QVQLQESGPGLVKPSQTLSLTCTVSAGSISSDTYYWSWIRQPAGKGLEWIGRIYTTGSTIYNPSLNSRVLISADTSNNQFSLKLTSVTASDTAVYYCAAHYYSRTDAFHIWGQGTMVTVSS
VL: DIQMTQSPSSLSASVGDRVTITCRASQSIAKFLNWYQKKPGKAPNLLISTASSFQSGVPSRFSGSGSGTDYTLTISGLQPEDFATYYCQQSYSSPYTFGQGTNLEIK
B4: ABU-349 (antibody, V domains shown)
VH: EVQLVESGGGLIQPGGSLRLSCAASGFTVSRNYMSWVRQAPGKGLEWVSLIYSGGSTFYADSVKGRFTISRDNSKNTLYLQMNTLRSEDTAVYYCARDLVVYGMDVWGQGTTVTVSS
VL: DIQLTQSPSFLSASVGDRVTITCRASQGISSYLAWYQQKPGKAPKLLIYAASTLQVGVPSRFSGSGSGTEFTLTISSLQPEDFATYFCQQLNSYPFTFGPGTKVDIK
B5: ABU-352 (antibody, V domains shown)
VH: B4 VH with F27L, R31S, S35T, L50V, D72H, T84S, S87A, L99A, V100M, V101S
VL: DIQMTQSPSSLSASVGDRVTITCRASQSISNFLNWYQQKPGKAPKLLIYAASSLQSGVPSRFSGSGSGTGFTLTISSLQPEDFATYYCQQSYSTPPDTFGQGTRLEIK
B6: ABU-351 (antibody, V domains shown)
VH: B4 VH with I12V, L50V, S56T, F58H, D72H, T84S, S87A
VL: B4 VL with V56S, R61S, F87Y, F96L, P100G, D105E
B7: ABU-355 (antibody, V domains shown)
VH: B4 VH with I12V, F27I, S30R, R31S, L50V, T84S, S87A, V100I, V101S, Y102R
VL: DIQLTQSPSSLSASVGDRVTITCRASQGISSYLAWYQQKPGKAPKLLIYAASTLQSGVPSRFSGSGSGTDFTLTISSLQPEDFATYYCQQLNGYPHSAFGPGTKVDIK
B8: ABU-358 (antibody, V domains shown)
VH: B4 VH with F27L, R31S, S35N, L50V, F58Y, T77M, L78V, T84S, S87A, T114I
VL: B7 VL with F83V, G93S, Y94N, H96P, S97I, A98T
B9: ABU-361 (antibody, V domains shown)
VH: B4 VH with F27L, R31S, L50V, F58Y, K75T, T84S, S87A, V100D, V101Y
VL: B7 VL with K45N, Q90H, G93S, H96P, S97I, A98T, P101Q, K104R, V105L, D106E
B10: ABU-362 (antibody, V domains shown)
VH: B4 VH with I12V, L50V, S56T, F58H, D72H, T84S, S87A
VL: B4 VL with V56S, R61S, F87Y, F96L, P100G, D105E
B11: ABU-356 (antibody, V domains shown)
VH: B4 VH with R31S, S35N, L50V, T84S, S87A, L99R
VL: DIQMTQSPSSLSASVGDRVTITCQASQDIINYLNWYQQKPGKAPKLLIYGASNLETGVPSRFSGGGSGTDFTFTISSLQPEDIATYYCHQYDNLPPTFGQGTRLEIK
B12: ABU-357 (antibody, V domains shown)
VH: B4 VH with I12V, F27V, R31S, L50V, F58N, T84S, S87A, V101S
VL: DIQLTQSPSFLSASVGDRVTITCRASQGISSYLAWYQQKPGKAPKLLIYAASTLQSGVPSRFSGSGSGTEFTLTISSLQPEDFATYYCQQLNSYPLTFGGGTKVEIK
B13: ABU-371 (antibody, V domains shown)
VH: B4 VH with I12V, F27I, T28I, R31S, L50V, F58Y, T84S, S87A, V100D, V101Y
VL: B7 VL with S10F, D70E, G93S, H96P, S97F, A98T
B14: ABU-297 (antibody, V domains shown)
VH: EVQLLESGGGVVQPGGSLRLSCAASGFAFTTYAMNWVRQAPGRGLEWVSAISDGGGSAYYADSVKGRFTISRDNSKNTLYLQMNSLRAEDTAVYYCAKTRGRGLYDYVWGSKDYWGQGTLVTVSS
VL: not shown
B15: ABU-360 (antibody, V domains shown)
VH: EVQLVESGGGLVQPGGSLRLSCAASEFIVSRNYMSWVRQAPGKGLEWVSVIYSGGSTFYADSVKGRFTISRDNSKNTLYLQMNSLRAEDTGVYYCARDRGLVSDYWGQGTLVTVSS
VL: B11 VL with I30N, N31K, Y49F, G50D, N53H, G64A, G65S, P96R
B16: ABU-365 (antibody, V domains shown)
VH: EVQLVESGGGLIQPGGSLRLSCAASGVTVSSNYMSWVRQAPGKGLEWVSLIYSGGSTYYADSVKGRFTISRDNSKNTLYLQMNSLRAEDTAVYYCARPIVGARSGMDVWGQGTTVTVSS
VL: B11 VL with I30N, G50D, G65S, T74I, H89Q, Y91H, P96V, Q100G, R103K, L104V
B17: ABU-359 (antibody, V domains shown)
VH: EVQLVESGGGLVQPGGSLRLSCAASGFIVSSNYMTWVRQAPGKGLEWVSVIYSGGSTFYADSVKGRFTISRHNSKNTLFLQMNSLRAEDTAVYYCARDAQNYGMDVWGQGTTVTVSS
VL: B5 VL with N31S, F32Y, Y49F, S56T, V58A, G70D, D97Y, R104K
B18: ABU-354 (antibody, V domains shown)
VH: EVQLVESGGGLIQPGGSLRLSCAASGLIVSSNYMSWVRQAPGKGLEWVSVLYAGGSTDYAGSVKGRFTISRDNSKNTLYLQMNSLRAEDTAVYYCARDAAVYGIDVWGQGTTVTVSS
VL: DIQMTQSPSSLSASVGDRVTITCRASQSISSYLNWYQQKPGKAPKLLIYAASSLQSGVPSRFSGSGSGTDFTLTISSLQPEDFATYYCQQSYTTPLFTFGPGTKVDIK

What was measured:
[1] = target: biotin-labeled SARS-COV-2 RBD domain (SARS-CoV-2, UniProt P0DTC2 319-541); test: SPR, Biacore T200, biotin-RBD on SA chip, antibody as analyte
[2] = target: S protein of the novel coronavirus SARS-CoV-2 (SARS-CoV-2, UniProt P0DTC2 14-1273); test: cell-based or functional assay

Binder | Kd [1] [nM] | IC50 for neutralizing SARS-CoV-2 pseudovirus (Huh-7 cells, luciferase) [2] [µg/mL]
B1 | < 10 | < 0.1
B2 | < 10 | < 0.5
B3 | < 10 | < 0.1
B4 | < 1 | < 0.1
B5 | < 10 | < 0.1
B6 | < 10 | < 0.1
B7 | < 1 | < 0.1
B8 | < 10 | < 0.1
B9 | < 20 | < 0.5
B10 | < 20 | < 0.5
B11 | < 10 | < 0.1
B12 | < 10 | < 1
B13 | < 20 | < 1
B14 | < 1 | < 0.1
B15 | < 1 | < 0.1
B16 | < 10 | < 0.1
B17 | < 10 | < 0.1
B18 | < 1 | < 0.1
